Source: US20250011410A1 (INVETX, published 2025)

Experiments:
[1] = molecular target: T1, canine NGF tagged at the C-terminus with the Flag tag (canine, UniProt A0A8I3PYI3 122-241); test: SPR off-rate assay, Fab-SASA on BSA chip
T1 construct: mature; Expressed with baculovirus technology; also called feline NGF (processed form identical)

[2] = molecular target: T1, canine NGF tagged at the C-terminus …; test: SPR off-rate screen, Fab-SASA on BSA chip

T1 sequence (A0A8I3PYI3 entry or part of it): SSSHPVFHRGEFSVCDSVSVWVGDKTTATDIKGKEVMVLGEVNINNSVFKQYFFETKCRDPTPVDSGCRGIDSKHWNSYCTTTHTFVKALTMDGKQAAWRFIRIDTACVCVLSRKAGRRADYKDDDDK

Binder | Kd [1] [nM] | Ratio (KD) WT/clones [1] | Ratio (kd) WT/clones [1] | koff [1] [s⁻¹] | kon [1] [M⁻¹ s⁻¹] | Kd [2] [nM] | Ratio WT-kd/clone-kd [2] | koff [2] [s⁻¹] | kon [2] [M⁻¹ s⁻¹]
AHF17591 (Fab, V domains shown, not shown: small tags and cut ends) VH: DVQLVESGGDLVKPGGSLRLTCVASGLSLTSSSMVWVRQAPGKGLQWVSTIYSNRGTYYTDSVKGRFTISKDNAENTLYLQMNNLKTEDTATYYCASIYYYDADYLHWYFDEWGQGALVTVSS VL: EIQMTQSPTSLSASVGDRVTITCRASEGIANNLSWYQQTPGKAPKLLIYATSILHSGVPSRFSGSGSGTDFTLTISSLQPEDFATYYCQQGYKWPLTFGGGTKLEITR | ≤ 0.00373 | 926 | 1680 | ≤ 1e-06 | 268000 | – | – | – | –
AHF17597 (Fab, V domains shown, not shown: small tags and cut ends) VH: DVQLVESGGDLVKPGGSLRLTCVASGLSLTSSSMVWVRQAPGKGLQWVSTIYSNRGTYYTDSVKGRFTISKDNAENTLYLQMNNLKTEDTATYYCASIYYYDADYLHWYFDFWGQGALVTVSS VL: EIQMTQSPTSLSASVGDRVTITCRASEGIQNNLSWYQQTPGKAPKLLIYATSILHSGVPSRFSGSGSGTDFTLTISSLQPEDFATYYCQQGYKWPLTFGGGTKLEITR | 0.0544 | 63.5 | 156 | 1.08e-05 | 199000 | – | – | – | –
AHF17594 (Fab, V domains shown, not shown: small tags and cut ends) VH: DVQLVESGGDLVKPGGSLRLTCVASGLSLTSSSMVWVRQAPGKGLQWVSTIYSNGGTYYTDSVKGRFTISKDNAENTLYLQMNNLKTEDTATYYCASIYYYDADYLHWYFDFWGQGALVTVSS VL: EIQMTQSPTSLSASVGDRVTITCRASEGIANNLSWYQQTPGKAPKLLIYATSVLHSGVPSRFSGSGSGTDFTLTISSLQPEDFATYYCQQGYKWPLTFGGGTKLEITR | 0.931 | 3.71 | 5.14 | 0.000328 | 353000 | – | – | – | –
AHF17595 (Fab, V domains shown, not shown: small tags and cut ends) VH: DVQLVESGGDLVKPGGSLRLTCVASGLSLTSSSMVWVRQAPGKGLQWVSTIYSNRGTYYTDSVKGRFTISKDNAENTLYLQMNNLKTEDTATYYCASIYYYDADYLHWYFDEWGQGALVTVSS VL: EIQMTQSPTSLSASVGDRVTITCRASEGIQNNLSWYQQTPGKAPKLLIYATSNLHSGVPSRFSGSGSGTDFTLTISSLQPEDFATYYCQQGYKWPLTFGGGTKLEITR | ≤ 0.00562 | 615 | 1680 | ≤ 1e-06 | 178000 | – | – | – | –
AHF17600 (Fab, V domains shown, not shown: small tags and cut ends) VH: DVQLVESGGDLVKPGGSLRLTCVASGLSLTSSSMVWVRQAPGKGLQWVSTIYSNRGTYYTDSVKGRFTISKDNAENTLYLQMNNLKTEDTATYYCASIYYYDADYLHWYFDFWGQGALVTVSS VL: EIQMTQSPTSLSASVGDRVTITCRASEGISNNLSWYQQTPGKAPKLLIYATSVLHSGVPSRFSGSGSGTDFTLTISSLQPEDFATYYCQQGYKWPLTFGGGTKLEITR | 0.329 | 10.5 | 29 | 5.81e-05 | 177000 | – | – | – | –
AHF17598 (Fab, V domains shown, not shown: small tags and cut ends) VH: DVQLVESGGDLVKPGGSLRLTCVASGLSLTSSSMVWVRQAPGKGLQWVSTIYSNRGTYYTDSVKGRFTISKDNAENTLYLQMNNLKTEDTATYYCASIYYYDADYLHWYFDEWGQGALVTVSS VL: EIQMTQSPTSLSASVGDRVTITCRASEGIANNLSWYQQTPGKAPKLLIYATSILHSGVPSRFSGSGSGTDFTLTISSLQPEDFATYYCQQGYKWPLTFGGGTKLEITR | 0.179 | 19.3 | 32.1 | 5.25e-05 | 294000 | – | – | – | –
felinized clone 101 Fab-SASA variant Y52W (VH) (Fab, V domains shown, not shown: small tags and cut ends) VH: DVQLVESGGDLVKPGGSLRLTCVASGLSLTSSSMSWVRQAPGKGLQWVSTIWSNGGTYYTDSVKGRFTISKDNAENTLYLQMNNLKTEDTATYYCASIYYYDADYLHWYFDFWGQGALVTVSS VL: EIQMTQSPTSLSASVGDRVTITCRASEGISNNLSWYQQTPGKAPKLLIYATSNLHSGVPSRFSGSGSGTDFTLTISSLQPEDFATYYCQQGYKWPLTFGGGTKLEITR | – | – | – | – | – | 1.5 | 1.45 | 0.000651 | 434000
felinized clone 101 Fab-SASA variant Y58D (VH) (Fab, V domains shown, not shown: small tags and cut ends) VH: DVQLVESGGDLVKPGGSLRLTCVASGLSLTSSSMSWVRQAPGKGLQWVSTIYSNGGTDYTDSVKGRFTISKDNAENTLYLQMNNLKTEDTATYYCASIYYYDADYLHWYFDFWGQGALVTVSS VL: EIQMTQSPTSLSASVGDRVTITCRASEGISNNLSWYQQTPGKAPKLLIYATSNLHSGVPSRFSGSGSGTDFTLTISSLQPEDFATYYCQQGYKWPLTFGGGTKLEITR | – | – | – | – | – | 1.47 | 1.68 | 0.000562 | 381000
AHF17593 (Fab, V domains shown, not shown: small tags and cut ends, Fab-SASA, combinatorial library) VH: DVQLVESGGDLVKPGGSLRLTCVASGLSLTSSSMVWVRQAPGKGLQWVSTIYSNRGTYYTDSVKGRFTISKDNAENTLYLQMNNLKTEDTATYYCAQIYYYDADYLHWYFDFWGQGALVTVSS VL: EIQMTQSPTSLSASVGDRVTITCRASEGIANNLSWYQQTPGKAPKLLIYATSVLHSGVPSRFSGSGSGTDFTLTISSLQPEDFATYYCQQGYKWPLTFGGGTKLEITR | ≤ 0.00613 | 563 | 1680 | ≤ 1e-06 | 163000 | – | – | – | –
AHF17592 (Fab, V domains shown, not shown: small tags and cut ends) VH: DVQLVESGGDLVKPGGSLRLTCVASGLSLTSSSMVWVRQAPGKGLQWVSTIYSNRGTYYTDSVKGRFTISKDNAENTLYLQMNNLKTEDTATYYCASIYYYDADYLHWYFDFWGQGALVTVSS VL: EIQMTQSPTSLSASVGDRVTITCRASEGISNNLSWYQQTPGKAPKLLIYATSVLHSGVPSRFSGSGSGTDFTLTISSLQPEDFATYYCQQGYKWPLTFGGGTKLEITR | 0.0761 | 45.4 | 115 | 1.46e-05 | 192000 | – | – | – | –
felinized clone 101 Fab-SASA variant Y99F (VH) (Fab, V domains shown, not shown: small tags and cut ends) VH: DVQLVESGGDLVKPGGSLRLTCVASGLSLTSSSMSWVRQAPGKGLQWVSTIYSNGGTYYTDSVKGRFTISKDNAENTLYLQMNNLKTEDTATYYCASIFYYDADYLHWYFDFWGQGALVTVSS VL: EIQMTQSPTSLSASVGDRVTITCRASEGISNNLSWYQQTPGKAPKLLIYATSNLHSGVPSRFSGSGSGTDFTLTISSLQPEDFATYYCQQGYKWPLTFGGGTKLEITR | – | – | – | – | – | 1.46 | 2.01 | 0.000469 | 321000
AHF17596 (Fab, V domains shown, not shown: small tags and cut ends) VH: DVQLVESGGDLVKPGGSLRLTCVASGLSLTSSSMVWVRQAPGKGLQWVSTIYSNRGTYYTDSVKGRFTISKDNAENTLYLQMNNLKTEDTATYYCASIYYYDADYLHWYFDFWGQGALVTVSS VL: EIQMTQSPTSLSASVGDRVTITCRASEGIANNLSWYQQTPGKAPKLLIYATSVLHSGVPSRFSGSGSGTDFTLTISSLQPEDFATYYCQQGYKWPLTFGGGTKLEITR | 0.0802 | 43.1 | 92.6 | 1.82e-05 | 227000 | – | – | – | –
AHF17599 (Fab, V domains shown, not shown: small tags and cut ends) VH: DVQLVESGGDLVKPGGSLRLTCVASGLSLTSSSMVWVRQAPGKGLQWVSTIYSNRGTYYTDSVKGRFTISKDNAENTLYLQMNNLKTEDTATYYCASIYYYDADYLHWYFDFWGQGALVTVSS VL: EIQMTQSPTSLSASVGDRVTITCRASEGIANNLSWYQQTPGKAPKLLIYATSVLHSGVPSRFSGSGSGTDFTLTISSLQPEDFATYYCQQGYKWPLTFGGGTKLEITR | ≤ 0.00472 | 732 | 1680 | ≤ 1e-06 | 212000 | – | – | – | –
AHF17602 (Fab-SASA) (Fab, V domains shown, not shown: small tags and cut ends) VH: DVQLVESGGDLVKPGGSLRLTCVASGLSLTSSSMVWVRQAPGKGLQWVSTIYSNRGTYYTDSVKGRFTISKDNAENTLYLQMNNLKTEDTATYYCASIYYYDADYLHWYFDFWGQGALVTVSS VL: EIQMTQSPTSLSASVGDRVTITCRASEGIANNLSWYQQTPGKAPKLLIYATSNLHSGVPSRFSGSGSGTDFTLTISSLQPEDFATYYCQQGYKWPLTFGGGTKLEITR | ≤ 0.00476 | 726 | 1680 | ≤ 1e-06 | 210000 | – | – | – | –
AHF17601 (Fab, V domains shown, not shown: small tags and cut ends) VH: DVQLVESGGDLVKPGGSLRLTCVASGLSLTSSSMVWVRQAPGKGLQWVSTIYSNRGTYYTDSVKGRFTISKDNAENTLYLQMNNLKTEDTATYYCAQIYYYDADYLHWYFDEWGQGALVTVSS VL: EIQMTQSPTSLSASVGDRVTITCRASEGIANNLSWYQQTPGKAPKLLIYATSNLHSGVPSRFSGSGSGTDFTLTISSLQPEDFATYYCQQGYKWPLTFGGGTKLEITR | ≤ 0.00344 | 1010 | 1680 | ≤ 1e-06 | 291000 | – | – | – | –
felinized clone 101 Fab-SASA variant T60S (VH) (Fab, V domains shown, not shown: small tags and cut ends) VH: DVQLVESGGDLVKPGGSLRLTCVASGLSLTSSSMSWVRQAPGKGLQWVSTIYSNGGTYYSDSVKGRFTISKDNAENTLYLQMNNLKTEDTATYYCASIYYYDADYLHWYFDFWGQGALVTVSS VL: EIQMTQSPTSLSASVGDRVTITCRASEGISNNLSWYQQTPGKAPKLLIYATSNLHSGVPSRFSGSGSGTDFTLTISSLQPEDFATYYCQQGYKWPLTFGGGTKLEITR | – | – | – | – | – | 1.76 | 1.65 | 0.000573 | 325000
felinized clone 101 Fab-SASA variant Y101H (VH) (Fab, V domains shown, not shown: small tags and cut ends) VH: DVQLVESGGDLVKPGGSLRLTCVASGLSLTSSSMSWVRQAPGKGLQWVSTIYSNGGTYYTDSVKGRFTISKDNAENTLYLQMNNLKTEDTATYYCASIYYHDADYLHWYFDFWGQGALVTVSS VL: EIQMTQSPTSLSASVGDRVTITCRASEGISNNLSWYQQTPGKAPKLLIYATSNLHSGVPSRFSGSGSGTDFTLTISSLQPEDFATYYCQQGYKWPLTFGGGTKLEITR | – | – | – | – | – | 1.62 | 1.9 | 0.000496 | 307000
